One assay concerns the target T1, HCV proteins (Hepatitis C virus genotype 1b, UniProt Q9WMX2).
T1 construct: expressed in transfected cells
Briefly: Validation by Y2H pairwise matrices.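 Also: yeast two-hybrid pairwise tests of interactions first found in Y2H screens of HCV bait proteins against human cDNA libraries.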 The assay is classed as binding.

Assay [1] has as its system HCV ORFs (Gal4-DB fusions). In kind it is binding, HCV genotype 1b, isolate con1. The note with it: human protein listed by gene symbol; the value names the HCV protein it interacts with.
The target of assay [2] is T2, HCV ORFs (Gal4-DB fusions) (Hepatitis C virus genotype 1b, UniProt Q9WMX2).
T2 construct: expressed in transfected cells; host or cells: Saccharomyces cerevisiae MAV203 (IMAP1) / AH109 (IMAP2)
The assay is classed as binding, HCV genotype 1b, isolate con1. The note with it: human protein as prey.

[3] abbreviates: validation of interaction with HCV protein NS3.
Where [4] appears, read: validation of interaction with HCV protein CORE.

Where two headings read alike, the source gives them in different places.
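For IMAP Y2H IMAP1 (number of IST) in this document: yeast two-hybrid screens using HCV genotype 1b proteins fused to Gal4-DB as baits against prey cDNA libraries from human spleen and foetal brain, IMAP1 via transformation and IMAP2 via mating.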
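For Interaction with viral protein in this document: yeast two-hybrid screens using HCV genotype 1b proteins fused to Gal4-DB as baits against prey cDNA libraries from human spleen and foetal brain, IMAP1 via transformation and IMAP2 via mating.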

B1: FES (protein, UniProt P07332 1-822, looked up)
Tyrosine-protein kinase …: MGFSSELCSPQGHGVLQQMQEAELRLLEGMRKWMAQRVKSDREYAGLLHHMSLQDSGGQSRAISPDSPISQSWAEITSQTEGLSRLLRQHAEDLNSGPLSKLSLLIRERQQLRKTYSEQWQQLQQELTKTHSQDIEKLKSQYRALARDSAQAKRKYQEASKDKDRDKAKDKYVRSLWKLFAHHNRYVLGVRAAQLHHQHHHQLLLPGLLRSLQDLHEEMACILKEILQEYLEISSLVQDEVVAIHREMAAAAARIQPEAEYQGFLRQYGSAPDVPPCVTFDESLLEEGEPLEPGELQLNELTVESVQHTLTSVTDELAVATEMVFRRQEMVTQLQQELRNEEENTHPRERVQLLGKRQVLQEALQGLQVALCSQAKLQAQQELLQTKLEHLGPGEPPPVLLLQDDRHSTSSSEQEREGGRTPTLEILKSHISGIFRPKFSLPPPLQLIPEVQKPLHEQLWYHGAIPRAEVAELLVHSGDFLVRESQGKQEYVLSVLWDGLPRHFIIQSLDNLYRLEGEGFPSIPLLIDHLLSTQQPLTKKSGVVLHRAVPKDKWVLNHEDLVLGEQIGRGNFGEVFSGRLRADNTLVAVKSCRETLPPDLKAKFLQEARILKQYSHPNIVRLIGVCTQKQPIYIVMELVQGGDFLTFLRTEGARLRVKTLLQMVGDAAAGMEYLESKCCIHRDLAARNCLVTEKNVLKISDFGMSREEADGVYAASGGLRQVPVKWTAPEALNYGRYSSESDVWSFGILLWETFSLGASPYPNLSNQQTREFVEKGGRLPCPELCPDAVFRLMEQCWAYEPGQRPSFSTIYQELQSIRKRHR
As to B1, the Y2H matrices entry in the assay with HCV proteins (setting [3]) is recorded as “+”. For the same molecule, the “Interaction with viral protein” value in assay [1] is “NS3”. In addition, the “IMAP Y2H IMAP1 (number of IST)” value in assay [2] (HCV protein NS3 as bait) is 1.

B2: FBLN2 (protein, UniProt P98095 28-1184, looked up)
Fibulin-2: APRQDCTGVECPPLENCIEEALEPGACCATCVQQGCACEGYQYYDCLQGGFVRGRVPAGQSYFVDFGSTECSCPPGGGKISCQFMLCPELPPNCIEAVVVADSCPQCGQVGCVHAGHKYAAGHTVHLPPCRACHCPDAGGELICYQLPGCHGNFSDAEEGDPERHYEDPYSYDQEVAEVEAATALGGEVQAGAVQAGAGGPPAALGGGSQPLSTIQAPPWPAVLPRPTAAAALGPPAPVQAKARRVTEDSEEEEEEEEEREEMAVTEQLAAGGHRGLDGLPTTAPAGPSLPIQEERAEAGARAEAGARPEENLILDAQATSRSTGPEGVTHAPSLGKAALVPTQAVPGSPRDPVKPSPHNILSTSLPDAAWIPPTREVPRKPQVLPHSHVEEDTDPNSVHSIPRSSPEGSTKDLIETCCAAGQQWAIDNDECLEIPESGTEDNVCRTAQRHCCVSYLQEKSCMAGVLGAKEGETCGAEDNDSCGISLYKQCCDCCGLGLRVRAEGQSCESNPNLGYPCNHVMLSCCEGEEPLIVPEVRRPPEPAAAPRRVSEAEMAGREALSLGTEAELPNSLPGDDQDECLLLPGELCQHLCINTVGSYHCACFPGFSLQDDGRTCRPEGHPPQPEAPQEPALKSEFSQVASNTIPLPLPQPNTCKDNGPCKQVCSTVGGSAICSCFPGYAIMADGVSCEDINECVTDLHTCSRGEHCVNTLGSFHCYKALTCEPGYALKDGECEDVDECAMGTHTCQPGFLCQNTKGSFYCQARQRCMDGFLQDPEGNCVDINECTSLSEPCRPGFSCINTVGSYTCQRNPLICARGYHASDDGTKCVDVNECETGVHRCGEGQVCHNLPGSYRCDCKAGFQRDAFGRGCIDVNECWASPGRLCQHTCENTLGSYRCSCASGFLLAADGKRCEDVNECEAQRCSQECANIYGSYQCYCRQGYQLAEDGHTCTDIDECAQGAGILCTFRCLNVPGSYQCACPEQGYTMTANGRSCKDVDECALGTHNCSEAETCHNIQGSFRCLRFECPPNYVQVSKTKCERTTCHDFLECQNSPARITHYQLNFQTGLLVPAHIFRIGPAPAFTGDTIALNIIKGNEEGYFGTRRLNAYTGVVYLQRAVLEPRDFALDVEMKLWRQGSVTTFLAKMHIFFTTFAL
Consider B2, for which the Y2H matrices result in the assay with HCV proteins (interaction with HCV protein p7), in the assay with HCV proteins (setting [4]) and with HCV proteins (setting [3]) was “+” each time. Also, in assay [1], the “Interaction with viral protein” value was “CORE and NS3”. Moreover, the “IMAP Y2H IMAP1 (number of IST)” value in assay [2] (HCV protein CORE as bait) worked out at 1; in assay [2] (HCV protein NS3 as bait), 9; in assay [2] (HCV protein p7 as bait), 1.

B3: DPF1 (protein, UniProt Q92782 1-387, looked up)
Zinc finger protein neuro-d4: MATVIPGPLSLGEDFYREAIEHCRSYNARLCAERSLRLPFLDSQTGVAQNNCYIWMEKTHRGPGLAPGQIYTYPARCWRKKRRLNILEDPRLRPCEYKIDCEAPLKKEGGLPEGPVLEALLCAETGEKKIELKEEETIMDCQKQQLLEFPHDLEVEDLEDDIPRRKNRAKGKAYGIGGLRKRQDTASLEDRDKPYVCDICGKRYKNRPGLSYHYTHTHLAEEEGEENAERHALPFHRKNNHKQFYKELAWVPEAQRKHTAKKAPDGTVIPNGYCDFCLGGSKKTGCPEDLISCADCGRSGHPSCLQFTVNMTAAVRTYRWQCIECKSCSLCGTSENDDQLLFCDDCDRGYHMYCLSPPMAEPPEGSWSCHLCLRHLKEKASAYITLT
Consider B3, for which, in the assay with HCV proteins (setting [3]), the Y2H matrices entry is reported as “+”. Besides, in assay [1], the “Interaction with viral protein” value is given as “NS3”. In assay [2] (HCV protein NS3 as bait), the “IMAP Y2H IMAP1 (number of IST)” value stood at 1.

B4: FAM120B (protein, UniProt Q96EK7 1-910, looked up)
Constitutive coactivator of …: MGVRGLQGFVGSTCPHICTVVNFKELAEHHRSKYPGCTPTIVVDAMCCLRYWYTPESWICGGQWREYFSALRDFVKTFTAAGIKLIFFFDGMVEQDKRDEWVKRRLKNNREISRIFHYIKSHKEQPGRNMFFIPSGLAVFTRFALKTLGQETLCSLQEADYEVASYGLQHNCLGILGEDTDYLIYDTCPYFSISELCLESLDTVMLCREKLCESLGLCVADLPLLACLLGNDIIPEGMFESFRYKCLSSYTSVKENFDKKGNIILAVSDHISKVLYLYQGEKKLEEILPLGPNKALFYKGMASYLLPGQKSPWFFQKPKGVITLDKQVISTSSDAESREEVPMCSDAESRQEVPMCTGPESRREVPVYTDSEPRQEVPMCSDPEPRQEVPTCTGPESRREVPMCSDPEPRQEVPMCTGPEARQEVPMYTDSEPRQEVPMYTDSEPRQEVPMYTGSEPRQEVPMYTGPESRQEVPMYTGPESRQEVLIRTDPESRQEIMCTGHESKQEVPICTDPISKQEDSMCTHAEINQKLPVATDFEFKLEALMCTNPEIKQEDPTNVGPEVKQQVTMVSDTEILKVARTHHVQAESYLVYNIMSSGEIECSNTLEDELDQALPSQAFIYRPIRQRVYSLLLEDCQDVTSTCLAVKEWFVYPGNPLRHPDLVRPLQMTIPGGTPSLKILWLNQEPEIQVRRLDTLLACFNLSSSREELQAVESPFQALCCLLIYLFVQVDTLCLEDLHAFIAQALCLQGKSTSQLVNLQPDYINPRAVQLGSLLVRGLTTLVLVNSACGFPWKTSDFMPWNVFDGKLFHQKYLQSEKGYAVEVLLEQNRSRLTKFHNLKAVVCKACMKENRRITGRAHWGSHHAGRWGRQGSSYHRTGSGYSRSSQGQPWRDQGPGSRQYEHDQWRRY
With B4, the Y2H matrices entry in the assay with HCV proteins (setting [3]) is “+”. The “Interaction with viral protein” value in assay [1] is recorded as “NS3”. For the same molecule, in assay [2] (HCV protein NS3 as bait), the “IMAP Y2H IMAP1 (number of IST)” value is 1.

B5: EFEMP2 (protein, UniProt O95967 24-443, looked up)
EGF-containing fibulin-like …: SASPQDSEEPDSYTECTDGYEWDPDSQHCRDVNECLTIPEACKGEMKCINHYGGYLCLPRSAAVINDLHGEGPPPPVPPAQHPNPCPPGYEPDDQDSCVDVDECAQALHDCRPSQDCHNLPGSYQCTCPDGYRKIGPECVDIDECRYRYCQHRCVNLPGSFRCQCEPGFQLGPNNRSCVDVNECDMGAPCEQRCFNSYGTFLCRCHQGYELHRDGFSCSDIDECSYSSYLCQYRCINEPGRFSCHCPQGYQLLATRLCQDIDECESGAHQCSEAQTCVNFHGGYRCVDTNRCVEPYIQVSENRCLCPASNPLCREQPSSIVHRYMTITSERSVPADVFQIQATSVYPGAYNAFQIRAGNSQGDFYIRQINNVSAMLVLARPVTGPREYVLDLEMVTMNSLMSYRASSVLRLTVFVGAYTF
For the molecule B5, the Y2H matrices entry with HCV proteins (setting [3]) is listed as “+”. The “Interaction with viral protein” value in assay [1] is given as “NS3”. The “IMAP Y2H IMAP1 (number of IST)” value in assay [2] (HCV protein NS3 as bait) is on record as 3.

B6: FBLN1 (protein, UniProt P23142 30-703, looked up)
Fibulin-1: DVLLEACCADGHRMATHQKDCSLPYATESKECRMVQEQCCHSQLEELHCATGISLANEQDRCATPHGDNASLEATFVKRCCHCCLLGRAAQAQGQSCEYSLMVGYQCGQVFQACCVKSQETGDLDVGGLQETDKIIEVEEEQEDPYLNDRCRGGGPCKQQCRDTGDEVVCSCFVGYQLLSDGVSCEDVNECITGSHSCRLGESCINTVGSFRCQRDSSCGTGYELTEDNSCKDIDECESGIHNCLPDFICQNTLGSFRCRPKLQCKSGFIQDALGNCIDINECLSISAPCPIGHTCINTEGSYTCQKNVPNCGRGYHLNEEGTRCVDVDECAPPAEPCGKGHRCVNSPGSFRCECKTGYYFDGISRMCVDVNECQRYPGRLCGHKCENTLGSYLCSCSVGFRLSVDGRSCEDINECSSSPCSQECANVYGSYQCYCRRGYQLSDVDGVTCEDIDECALPTGGHICSYRCINIPGSFQCSCPSSGYRLAPNGRNCQDIDECVTGIHNCSINETCFNIQGGFRCLAFECPENYRRSAATLQQEKTDTVRCIKSCRPNDVTCVFDPVHTISHTVISLPTFREFTRPEEIIFLRAITPPHPASQANIIFDITEGNLRDSFDIIKRYMDGMTVGVVRQVRPIVGPFHAVLKLEMNYVVGGVVSHRNVVNVHIFVSEYWF
For the molecule B6, the Y2H matrices entry with HCV proteins (setting [3]) is reported as “+”. Besides, the “Interaction with viral protein” value in assay [1] was “NS3”. Further, the “IMAP Y2H IMAP1 (number of IST)” value in assay [2] (HCV protein NS3 as bait) is 8.

B7: FBLN5 (protein, UniProt Q9UBX5 24-448, looked up)
Fibulin-5: QAQCTNGFDLDRQSGQCLDIDECRTIPEACRGDMMCVNQNGGYLCIPRTNPVYRGPYSNPYSTPYSGPYPAAAPPLSAPNYPTISRPLICRFGYQMDESNQCVDVDECATDSHQCNPTQICINTEGGYTCSCTDGYWLLEGQCLDIDECRYGYCQQLCANVPGSYSCTCNPGFTLNEDGRSCQDVNECATENPCVQTCVNTYGSFICRCDPGYELEEDGVHCSDMDECSFSEFLCQHECVNQPGTYFCSCPPGYILLDDNRSCQDINECEHRNHTCNLQQTCYNLQGGFKCIDPIRCEEPYLRISDNRCMCPAENPGCRDQPFTILYRDMDVVSGRSVPADIFQMQATTRYPGAYYIFQIKSGNEGREFYMRQTGPISATLVMTRPIKGPREIQLDLEMITVNTVINFRGSSVIRLRIYVSQYPF
With B7, the Y2H matrices result with HCV proteins (setting [4]), with HCV proteins (validation of interaction with HCV protein NS2) and with HCV proteins (setting [3]) was “+” throughout. Besides, the “Interaction with viral protein” value in assay [1] is “CORE and NS3 and NS2”. Also, the “IMAP Y2H IMAP1 (number of IST)” value was found to be 1 in assay [2] (HCV protein CORE as bait), 1 in assay [2] (HCV protein NS2 as bait) and 32 in assay [2] (HCV protein NS3 as bait).
